Laboratory results from patent US20260137799A1, “ANTI-MUC1* ANTIBODY DRUG COMPLEXES AND USES THEREOF” (Minerva Biotechnologies Corporation, priority 2023, published 2026).
Like-named read-outs stand apart in the source and are kept apart here.

Legend:
[1] = system: breast cancer, pancreatic cancer, and lung cancer cell lines; experiment: Cytotoxicity of ADCs with additional linkers and toxins (FIGS. 30-31); format: cell-based; conditions: breast cancer, pancreatic cancer, and lung cancer cells
Experimental: FIG. 30 is a table showing cytotoxicity of the indicated MUC1* ADCs against indicated cancer cells. IC50 values were determined from xCELLigence data. FIG. 30 discloses “GGFG” as SEQ ID NO: 160, “GGGG” as SEQ ID NO: 161, “GGVA” as SEQ ID NO: 162, “GGVG” as SEQ ID NO: 163.
FIG. 31 is a table showing cytotoxicity of the indicated MUC1* ADCs against indicated cancer cells. IC50 values were determined from PrestoBlue data.
An anti-MUC1* antibody was conjugated to several toxins via a number of different linkers (compounds VIII-XXII).

T47D-MUC1* [2] = experiment: xCELLigence impedance cytotoxicity, T47D-MUC1*; format: cell-based, human
Experimental: (§1) An xCELLigence RTCA MP Instrument (Agilent) was used to assess real-time killing of target cancer cells). In the xCELLigence system, target cancer cells, which are adherent, are plated onto electrode array 96-well plates. Adherent cells insulate the electrode and increase the impedance. The number of adherent cancer cells is directly proportional to impedance. […] Therefore, increasing impedance reflects the growth of the cancer cells and decreasing impedance reflects the killing of the cancer cells.
(§2) Target Cancer cells (Table 9) were seeded onto a multi-electrode well plate at a density of 5000 cells/well (100 μL of a 50,000 cells/mL stock) and incubated for 24 hr in a 37° C./5% CO2 incubator. ADCs were prepared as a 2× solution in corresponding growth media and 100 μL of each concentration was added to target cells. As a positive control (100% cell killing) cells were treated with either 1% triton or 1 μM Taxol instead of ADC. After 40-120 hours incubation in a 37° C./5% CO2 incubator cell killing was assessed. In this assay, impedance is measured in real-time. When the adherent cancer cells are killed and come off the electrode surface, impedance (insulation) decreases.

MUC1*45 = MUC1*45 (UniProt P15941 1110-1255); experiment: cell-based or functional assay
[3] = system: low MUC1* expressing, mCherry H1975 lung cancer cells; experiment: Bystander killing of low antigen expressing cancer cells; format: cell-based, human; conditions: 56 nM ADC; population contained 30% high MUC1* expressing H1975-MUC1*-GFP cells
[4] = system: H2110-wt lung cancer cell line; experiment: xCELLigence impedance cytotoxicity, H2110; format: cell-based, human; conditions: Example 9 (FIGS. 35-36); read-out: IC50, lung cancer H2110-wt cells
Experimental: as §1, §2
(§3) To directly compare the C2 and 3C2B1 anti-MUC1* antibodies as ADC targeting domains, a panel of MUC1* positive cancer cell lines representing different cancer types were treated with C2-deruxtecan versus 3C2B1-deruxtecan (FIG. 35) or C2-MC-VA-PAB-exatecan versus 3C2B1-MC-VA-PAB-exatecan (FIG. 36). In some cases, the cancer cells were engineered to express high levels of MUC1*45.

[5] = system: CFPAC1-wt pancreatic cancer cell line; experiment: xCELLigence impedance cytotoxicity, CFPAC1; format: cell-based, human; conditions: Example 9 (FIGS. 35-36); read-out: IC50, CFPAC1-wt pancreatic cancer cells
Experimental: as §1, §2, §3

[6] = system: MUC1* negative HEK-293-TN cells; experiment: Bystander killing of non-target cells; format: cell-based
Experimental: The cell population was doped with H1975-MUC1*45-GFP cells as indicated. FIGS. 31A1-31A20 show the effect of C2-MC-GGFG-AM-DXd (SEQ ID NO: 160) on the non-target cells. […] FIGS. 31C1-31C20 show the effect of C2-MC-VA-PAB-exatecan on the non-target cells.
FIGS. 33A-33H show graphs of the integrated pixel density of non-target cancer cells as a function of doping cell population with cells expressing high amounts of MUC1*45. FIGS. 33A-33D show the effect when the cells were treated with C2-MC-GGFG-AM-DXd (SEQ ID NO: 160). FIGS. 33E-33H show the effect when the cells were treated with C2-MC-VA-PAB-exatecan.
In another experiment, we investigated the killing of off-target cells (MUC1* negative HEK-293-TN cells) as well as low antigen expressing target cells (H1975 lung cancer) due to a “bystander” effect (FIGS. 32A1-32D20, FIGS. 33A-33H and FIGS. 34A-34H). To assess the killing of non-target cells adjacent to cells with high MUC1* expression, we doped non-target cells expressing an mCherry marker with varying percentages of target cells that express GFP. 56 nM C2-MC-VA-PAB-exatecan killed nearly all the neighboring non-target cells when the cell population was doped with 30% of the high antigen expressing target cells (FIG. 32C17). […]

NCI-H1975 = experiment: xCELLigence impedance cytotoxicity, NCI-H1975; format: cell-based, human
Experimental: as §1, §2

T47D [7] = experiment: xCELLigence impedance cytotoxicity, T47D; format: cell-based, human
Outline: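 Adherent target cells plated at 5000/well on electrode plates were grown 24 h, then exposed to serially diluted ADCs in growth medium at 37° C/5% CO2. Killing was followed as real-time impedance loss over 40-120 h, normalized to 1% triton or 1 μM Taxol as 100% kill.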

HPAF-II = experiment: xCELLigence impedance cytotoxicity, HPAF-II; format: cell-based, human; conditions: xCELLigence; 40-120 hours incubation; read-out: IC50, HPAF-II
Experimental: as §1, §2

[8] = system: T47D-MUC1* xenograft tumors; experiment: T47D-MUC1* breast cancer xenograft; format: in vivo, NOD/SCID mice; conditions: intraperitoneal; MMAE ADCs 5-10 mg/kg Days 7, 14, 20; deruxtecan/exatecan ADCs 20 mg/kg weekly x7
Experimental: (§4) For breast cancer xenografts, female NOD/SCID mice (weight 18-22 g, 6-8 weeks old, Charles River Laboratories) previously implanted with a 90-day release estrogen pellet (Innovative Research Laboratories) were subcutaneously injected under isoflurane anesthesia (ISOTHESIA, 250 ml (HENRY SCHEIN, NDC: 11695-6776-2) with one million luciferase-positive T47D breast cancer cells expressing low levels of MUC1*(ATCC) or one million luciferase-positive T47D-MUC1* cells overproducing MUC1* using a BD 26G Insulin Syringes with Detachable Needle (Fisher cat: 329652) or BD 28G Lo-Dose U-100 Insulin Syringes (Fisher cat: 329461).
(§5) Tumor volume was measured from bioluminescence images acquired with a Xenogen IVIS-Spectrum system (Perkin Elmer). Mice were injected […] into the scruff of the neck with 150 ul, 30 mg/mL, D-Luciferin (XenoLight™ D-Luciferin Potassium Salt; PerkinElmer P/N 122799), placed under isoflurane anesthesia, and photographed within 10 minutes of the Leciferin injection. Data was expressed graphically as Radiance (photons/sec) as a function of days post-tumor implantation.
(§6) Tumor mass was determined from tumors excised from mice receiving T47D cells on Day 95 and mice receiving T47D-MUC1* cells on Day 96. […]

DU-145 [9] = experiment: xCELLigence impedance cytotoxicity, DU-145; format: cell-based, human; conditions: 40-120 hours incubation
Experimental: as §1, §2

HPAF-II MUC1* = experiment: xCELLigence impedance cytotoxicity, HPAF-II MUC1*; format: cell-based, human; conditions: xCELLigence; 40-120 hours incubation; read-out: IC50, HPAF-II MUC1*
Experimental: as §1, §2

HPAFII-MUC1* = experiment: PrestoBlue live/dead cell assay, HPAFII-MUC1*; format: cell-based, human; conditions: Presto Blue; 72-120 hour incubation
Experimental: (§7) Another method of measuring the killing activity of ADCs against target cancer cells is to use the PrestoBlue live/dead cell assay (ThermoFisher). Target cancer cells were seeded in a black-walled, clear-bottom 96-well tissue culture plate at a density of 5000 cells/well (100 μL of a 50,000 cells/mL stock) and incubated overnight in a 37° C./5% CO2 incubator. ADCs were prepared as a 2× solution in corresponding cancer cell growth media and 100 μL of each concentration was added to target cancer cells. As a positive control (100% killing) cancer cells were treated with 1 μM Taxol instead of ADC. After 72 hour-120 hour incubation in a 37° C./5% CO2 incubator, cell viability was measure by fluorescence using the PrestoBlue HS assay (ThermoFisher). Briefly, after the incubation period, 20 μL of PrestoBlue HS solution was added. Fluorescence (Ex 560 nm/Em 590 nm) was recorded after 30-90 min. incubation using a Tecan plate reader. Percentage viability was determined by PrestoBlue HS staining and normalized to 1 μM taxol treated cells.
(§8) The normalized fluorescence values were imported into the graph program, Sigma Plot, data plotted as ADC concentration versus normalized fluorescence signal and curve fitted using a four-parameter Hill equation: f=y0+a*x^b/(c^b+x^b) to calculate IC50 values. IC50 values for the ADCs were generally consistent between the xCELLigence and Presto Blue assays.

T47D xenograft tumors = experiment: T47D breast cancer xenograft; format: in vivo, NOD/SCID mice; conditions: intraperitoneal; MMAE ADCs 5-10 mg/kg Days 7, 14, 20; deruxtecan/exatecan ADCs 20 mg/kg weekly x7
Experimental: as §4, §5, §6

T47D-MUC1* 15% [10] = experiment: xCELLigence impedance cytotoxicity, T47D-MUC1* 15%; format: cell-based, human; conditions: 40-120 hours incubation
Experimental: as §1, §2

DU-145 [11] = experiment: PrestoBlue live/dead cell assay, DU-145; format: cell-based, human; conditions: Presto Blue; 72-120 hour incubation
Experimental: as §7, §8

T47D-MUC1* 15% [12] = experiment: PrestoBlue live/dead cell assay, T47D-MUC1* 15%; format: cell-based, human; conditions: Presto Blue; 72-120 hour incubation
Experimental: as §7, §8

HPAFII = experiment: PrestoBlue live/dead cell assay, HPAFII; format: cell-based, human; conditions: Presto Blue; 72-120 hour incubation
Experimental: as §7, §8

H1975 = experiment: PrestoBlue live/dead cell assay, H1975; format: cell-based, human; conditions: Presto Blue; 72-120 hour incubation
Experimental: as §7, §8

T47D-MUC1* [13] = experiment: PrestoBlue live/dead cell assay, T47D-MUC1*; format: cell-based, human; conditions: Presto Blue; 72-120 hour incubation
Experimental: as §7, §8

T47D [14] = experiment: PrestoBlue live/dead cell assay, T47D; format: cell-based, human; conditions: Presto Blue; 72-120 hour incubation
Experimental: as §7, §8

B1: C2-MC-VA-PAB-exatecan (antibody, mouse IgG1, kappa)
VH: EVQLEESGGGLVKPGGSLKLSCAASGFTFSGYAMSWVRQTPEKRLEWVATISSGGTYIYYPDSVKGRFTISRDNAKNTLYLQMSSLRSEDTAMYYCARLGGDNYYEYFDVWGAGTTVTVSSAKTTPPSVYAKTTPPSVYPLAPGSAAQTNSMVTLGCLVKGYFPEPVTVTWNSGSLSSGVHTFPAVLQSDLYTLSSSVTVPSSTWPSETVTCNVAHPASSTKVDKKIVPRDCGCKPCICTVPEVSSVFIFPPKPKDVLTITLTPKVTCVVVDISKDDPEVQFSWFVDDVEVHTAQTQPREEQFNSTFRSVSELPIMHQDWLNGKEFKCRVNSAAFPAPIEKTISKTKGRPKAPQVYTIPPPKEQMAKDKVSLTCMITDFFPEDITVEWQWNGQPAENYKNTQPIMDTDGSYFVYSKLNVQKSNWEAGNTFTCSVLHEGLHNHHTEKSLSHSPGK
VL: DIVITQSTASLGVSLGQRATISCRASKSVSTSGYSYMHWYQQRPGQPPKLLIYLASNLESGVPARFSGSGSGTDFTLNIHPVEEEDAATYYCQHSRELPFTFGGGTKLEIKRADAAPTVSADAAPTVSIFPPSSEQLTSGGASVVCFLNNFYPKDINVKWKIDGSERQNGVLNSWTDQDSKDSTYSMSSTLTLTKDEYERHNSYTCEATHKTSTSPIVKSFNRNEC
modifications: MC-VA-PAB-exatecan on reduced cysteine thiols of the antibody, sites not stated; MC-VA-PAB-exatecan on reduced cysteine thiols of the antibody, sites not stated; DAR 5.1
activity compared to deruxtecan ADC [1]: enhanced activity | IC50 (T47D-MUC1* [2]; Example 9 (FIGS. 35-36), read-out: IC50, T47D cells engineered to express more MUC1*45): 4 nM | IC50, killing of H1975 cells engineered to express MUC1*45 (xCELLigence) (MUC1*45): 9 nM | low MUC1* expressing cancer cells killed [3]: about 75% | IC50 [4]: 60 nM | IC50 [5]: 51 nM | killing of neighboring non-target cells ([6]; 56 nM ADC, population doped with 30% H1975-MUC1*45-GFP target cells, 120 hours): nearly all | non-specific cytotoxicity ([6]; pure populations of non-target HEK-293-TN cells): limited amount of non-specific cytotoxicity | IC50 (NCI-H1975; Example 9 (FIGS. 35-36), read-out: IC50 for killing of H1975-wt cells): 117 nM | IC50 (T47D [7]; Example 9 (FIGS. 35-36), average over batches for DXd ADCs, read-out: IC50 for killing of breast cancer T47D-wt cells): 44 nM

B2: C2 MC-PEG8-VA-PAB exatecan (conjugate, listed as Mus sp.)
heavy: B1 VH
light: B1 VL
modifications: MC-PEG8-VA-PAB-exatecan
notes: ADC: antibody C2 conjugated via MC-PEG8-VA-PAB linker to exatecan
IC50 (HPAF-II): 86 nM | growth of T47D-MUC1* xenograft tumors [8]: inhibit the growth | IC50 (T47D-MUC1* [2]; xCELLigence, 40-120 hours incubation, read-out: IC50, T47D-MUC1*): 6.2 nM | IC50 (DU-145 [9]): 163 nM | IC50 (HPAF-II MUC1*): 72 nM | IC50 (HPAFII-MUC1*): 62 nM | growth of T47D xenograft tumors (T47D xenograft tumors): inhibit the growth | IC50 (T47D-MUC1* 15% [10]): 20 nM | IC50 (DU-145 [11]): 160 nM | IC50 (T47D-MUC1* 15% [12]): 25 nM | IC50 (HPAFII): 180 nM | IC50 (H1975): 19 nM | IC50 (NCI-H1975; xCELLigence, 40-120 hours incubation, read-out: IC50, NCI-H1975): 207 nM | IC50 (T47D [7]; xCELLigence, 40-120 hours incubation, read-out: IC50, T47D): 112 nM | IC50 (T47D-MUC1* [13]): 8 nM | IC50 (T47D [14]): 153 nM
